Experimental data: US20220127372A1

B1: GPC3-SL-mCD3ε (protein)
chain: EVQLVQSGAEVKKPGASVKVSCKASGYTFSDYEMHWVRQAPGQGLEWMGAIHPGSGDTAYNQRFKGRVTITADKSTSTAYMELSSLRSEDTAVYYCARFYSYAYWGQGTLVTVSAGGGGSGGGGSGGGGSDIVMTQTPLSLPVTPGEPASISCRSSQSLVHSNGNTYLQWYLQKPGQSPQLLIYKVSNRFSGVPDRFSGSGSGTDFTLKISRVEAEDVGVYYCSQSIYVPYTFGQGTKLEIKRAAAGGGGSGGGGSGGGGSLEDDAENIEYKVSISGTSVELTCPLDSDENLKWEKNGQELPQKHDKHLVLQDFSEVEDSGYYVCYTPASNKNTYLYLKARVCEYCVEVDLTAVAIIIIVDICITLGLLMVIYYWSKNRKAKAKPVTRGTGAGSRPRGQNKERPPPVPNPDYEPIRKGQRDLYSGLNQRAV
B2: GPC3-SL-mCD3ε-F2A-mCCL21b (protein)
chain: EVQLVQSGAEVKKPGASVKVSCKASGYTFSDYEMHWVRQAPGQGLEWMGAIHPGSGDTAYNQRFKGRVTITADKSTSTAYMELSSLRSEDTAVYYCARFYSYAYWGQGTLVTVSAGGGGSGGGGSGGGGSDIVMTQTPLSLPVTPGEPASISCRSSQSLVHSNGNTYLQWYLQKPGQSPQLLIYKVSNRFSGVPDRFSGSGSGTDFTLKISRVEAEDVGVYYCSQSIYVPYTFGQGTKLEIKRAAAGGGGSGGGGSGGGGSLEDDAENIEYKVSISGTSVELTCPLDSDENLKWEKNGQELPQKHDKHLVLQDFSEVEDSGYYVCYTPASNKNTYLYLKARVCEYCVEVDLTAVAIIIIVDICITLGLLMVIYYWSKNRKAKAKPVTRGTGAGSRPRGQNKERPPPVPNPDYEPIRKGQRDLYSGLNQRAV
B3: GPC3-SL-mCD3ε-F2A-mRunx3 (protein)
chain: EVQLVQSGAEVKKPGASVKVSCKASGYTFSDYEMHWVRQAPGQGLEWMGAIHPGSGDTAYNQRFKGRVTITADKSTSTAYMELSSLRSEDTAVYYCARFYSYAYWGQGTLVTVSAGGGGSGGGGSGGGGSDIVMTQTPLSLPVTPGEPASISCRSSQSLVHSNGNTYLQWYLQKPGQSPQLLIYKVSNRFSGVPDRFSGSGSGTDFTLKISRVEAEDVGVYYCSQSIYVPYTFGQGTKLEIKRAAAGGGGSGGGGSGGGGSLEDDAENIEYKVSISGTSVELTCPLDSDENLKWEKNGQELPQKHDKHLVLQDFSEVEDSGYYVCYTPASNKNTYLYLKARVCEYCVEVDLTAVAIIIIVDICITLGLLMVIYYWSKNRKAKAKPVTRGTGAGSRPRGQNKERPPPVPNPDYEPIRKGQRDLYSGLNQRAV
B4: GPC3-SL-mCD3ε-NFAT-mIL12 (protein)
chain: EVQLVQSGAEVKKPGASVKVSCKASGYTFSDYEMHWVRQAPGQGLEWMGAIHPGSGDTAYNQRFKGRVTITADKSTSTAYMELSSLRSEDTAVYYCARFYSYAYWGQGTLVTVSAGGGGSGGGGSGGGGSDIVMTQTPLSLPVTPGEPASISCRSSQSLVHSNGNTYLQWYLQKPGQSPQLLIYKVSNRFSGVPDRFSGSGSGTDFTLKISRVEAEDVGVYYCSQSIYVPYTFGQGTKLEIKRAAAGGGGSGGGGSGGGGSLEDDAENIEYKVSISGTSVELTCPLDSDENLKWEKNGQELPQKHDKHLVLQDFSEVEDSGYYVCYTPASNKNTYLYLKARVCEYCVEVDLTAVAIIIIVDICITLGLLMVIYYWSKNRKAKAKPVTRGTGAGSRPRGQNKERPPPVPNPDYEPIRKGQRDLYSGLNQRAV
B5: GPC3-SL-mCD3ε-F2A-mIL7-P2A-mCCL21b (protein)
chain: EVQLVQSGAEVKKPGASVKVSCKASGYTFSDYEMHWVRQAPGQGLEWMGAIHPGSGDTAYNQRFKGRVTITADKSTSTAYMELSSLRSEDTAVYYCARFYSYAYWGQGTLVTVSAGGGGSGGGGSGGGGSDIVMTQTPLSLPVTPGEPASISCRSSQSLVHSNGNTYLQWYLQKPGQSPQLLIYKVSNRFSGVPDRFSGSGSGTDFTLKISRVEAEDVGVYYCSQSIYVPYTFGQGTKLEIKRAAAGGGGSGGGGSGGGGSLEDDAENIEYKVSISGTSVELTCPLDSDENLKWEKNGQELPQKHDKHLVLQDFSEVEDSGYYVCYTPASNKNTYLYLKARVCEYCVEVDLTAVAIIIIVDICITLGLLMVIYYWSKNRKAKAKPVTRGTGAGSRPRGQNKERPPPVPNPDYEPIRKGQRDLYSGLNQRAV

Target: mouse GPC3 protein (mouse) (UniProt Q8CFZ4)
Assay: cell-based or functional assay

Chain of UniProt Q8CFZ4 (Q8CFZ4 25-579 limits assumed): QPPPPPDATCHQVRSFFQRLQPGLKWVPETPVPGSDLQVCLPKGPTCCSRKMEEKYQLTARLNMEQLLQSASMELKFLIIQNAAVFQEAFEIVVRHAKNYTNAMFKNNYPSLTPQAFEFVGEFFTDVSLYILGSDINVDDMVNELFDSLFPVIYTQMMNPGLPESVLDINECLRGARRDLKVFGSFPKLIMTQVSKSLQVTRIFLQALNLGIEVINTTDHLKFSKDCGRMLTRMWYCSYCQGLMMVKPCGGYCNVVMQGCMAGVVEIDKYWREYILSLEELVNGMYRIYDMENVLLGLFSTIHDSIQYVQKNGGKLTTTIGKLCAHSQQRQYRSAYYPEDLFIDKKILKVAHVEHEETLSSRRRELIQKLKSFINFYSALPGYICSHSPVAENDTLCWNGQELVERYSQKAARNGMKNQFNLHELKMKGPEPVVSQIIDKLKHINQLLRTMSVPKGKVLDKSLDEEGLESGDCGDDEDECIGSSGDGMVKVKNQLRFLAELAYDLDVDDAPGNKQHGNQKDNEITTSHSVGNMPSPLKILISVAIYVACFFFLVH

| Binder | cytotoxicity to Hepa 1-6 GPC3 cells, effector target ratio 1:1, 18 h (CytoTox 96) |
| --- | --- |
| B1 | 70.7% |
| B2 | 73.2% |
| B3 | 82.2% |
| B4 | 91.5% |
| B5 | 73.4% |
